Tests used:
Details in all cases: 100 mM Tris-HCl pH 8, 30°C, 1.5 µM PrCl3, 1.5 µM PQQ, 1 mM PES, 150 µM DCPIP
[1] = substrate: CC[C@@H](C)O; assay: purified protein
[2] = substrate: CC[C@H](C)O; assay: purified protein
[3] = substrate: CO; assay: dye-linked PES/DCPIP colorimetric assay, Michaelis-Menten fit; assay type: biochemical, Pseudomonas putida

B1: PedH (Pseudomonas putida KT2440) (protein)
chain: AVSNEEILQDPKNPQQIVTNGLGVQGQRYSPLDLLNVNNVKELRPVWAFSFGGEKQRGQQAQPLIKDGVMYLTGSYSRVFAVDARTGKKLWQYDARLPDDIRPCCDVINRGVALYGNLVFFGTLDAKLVALNKDTGKVVWSKKVADHKEGYSISAAPMIVNGKLITGVAGGEFGVVGKIQAYNPENGELLWMRPTVEGHMGYVYKDGKAIENGISGGEAGKTWPGDLWKTGGAAPWLGGYYDPETNLILFGTGNPAPWNSHLRPGDNLYSSSRLALNPDDGTIKWHFQSTPHDGWDFDGVNELISFNYKDGGKEVKAAATADRNGFFYVLDRTNGKFIRGFPFVDKITWATGLDKDGRPIYNDASRPGAPGSEAKGSSVFVAPAFLGAKNWMPMAYNKDTGLFYVPSNEWGMDIWNEGIAYKKGAAFLGAGFTIKPLNEDYIGVLRAIDPVSGKEVWRHKNYAPLWGGVLTTKGNLVFTGTPEGFLQAFNAKTGDKVWEFQTGSGVLGSPVTWEMDGEQYVSVVSGWGGAVPLWGGEVAKRVKDFNQGGMLWTFKLPKQLQQTASVKP
notes: recombinant, pET-28a in E. coli BL21(DE3), purified on Ni-NTA; PQQ and Pr3+ added
Km [1]: 940 ± 130 µM
kcat [1]: 0.42 ± 0.01 s⁻¹
kcat/Km [1]: 447 M⁻¹ s⁻¹
Km [2]: 1070 ± 180 µM
kcat [2]: 0.43 ± 0.01 s⁻¹
kcat/Km [2]: 402 M⁻¹ s⁻¹
Km [3]: 1100 µM
kcat [3]: 0.15 s⁻¹

Reference: PMC10991234, “An evolved pyrrolysyl-tRNA synthetase with polysubstrate specificity expands the toolbox for engineering enzymes with incorporation of noncanonical amino acids” (Bioresources and Bioprocessing, 2023)
